Data reported in patent US8715959B2, “Substitution mutant receptors and their use in a nuclear receptor-based inducible gene expression system” (priority 2001, dated 2014).

System: CfEcR-DEF
Experiment: GAL4/mutant CfEcR-DEF + VP16/LmUSP-EF GAL4-driven luciferase reporter transactivation in NIH3T3 cells
Assay type: cell-based, Choristoneura fumiferana
Conditions: NIH3T3 cells, relative to Gal4/wild-type CfEcR-DEF switch activity; for Fold increase over WT, 2.5 μM GS™-E: 2.5 μM GS™-E non-steroidal ligand; for Fold increase over WT, 2.5 μM PonA: 2.5 μM PonA steroidal ligand
Description: DNAs corresponding to the various switch constructs outlined in Example 1, specifically switches 1.1-1.13, were transfected into mouse NIH3T3 cells (ATCC) or L57 cells (Dr. Peter Cherbas; Indiana University) as follows. Standard methods for culture and maintenance of the cells were followed. […] Superfect™ (Qiagen Inc.) was used for 3T3 cells and Lipofectamine™ (LifeTechnologies) was used for L57 cells as the transfection reagents. For 12-well plates, 4 μl of Superfect™ or Lipofectamine™ was mixed with 100 μl of growth medium. One μg of reporter construct and 0.25 μg of each receptor construct of the receptor pair to be analyzed were added to the transfection mix. […] The cells were harvested and reporter activity was assayed.
Cells were harvested 40 hours after adding ligands. […] Twenty μl of lysate were assayed.
Briefly, Applicants mutated amino acid residues predicted to be critical for ecdysteroid binding into alanine and created GAL4/mutantCfEcR-DEF cDNA gene expression cassettes as described in Example 1 above using the Quikchange PCR-mediated site-directed mutagenesis kit (Stratagene, La Jolla, Calif.). The mutated and the WT cDNAs were tested in GAL4-driven luciferase reporter assays.
DNAs corresponding to the various switch constructs outlined in Example 1, specifically switches 1.1-1.2, were transfected into mouse NIH3T3 cells (ATCC) as follows. […] Two μl of Superfect™ was mixed with 100 μl of growth medium and 50 ng of either GAL4/wild-type EcR or Gal4/mutant EcR cassette, 50 ng of VP16/LmUSP-EF and 200 ng of pFRLuc were added to the transfection mix. […] The cells were harvested and reporter activity was assayed as described above.

Molecule | Fold increase over WT, 2.5 μM GS™-E [fold] | Fold increase over WT, 2.5 μM PonA [fold]
M92A: CfEcR-DEF LBD substitution mutant, Methionine (M) to Alanine (A) (protein, listed as Choristoneura fumiferana) LTANQQFLIARLIWYQDGYEQPSDEDLKRITQTWQQADDENEESDTPFRQITEMTILTVQLIVEFAKGLPGFAKISQPDQITLLKACSSEVAMLRVARRYDAASDSVLFANNQAYTRDNYRKAGMAYVIEDLLHFCRCMYSMALDNIHYALLTAVVIFSDRPGLEQPQLVEEIQRYYLNTLRIYILNQLSGSARSSVIYGKILSILSELRTLGMQNSNMCISLKLKNRKLPPFLEEIWDV | 0.7 | 0.39
R95A/A110P: CfEcR-DEF LBD double mutant, R95A and A110P (protein, listed as Choristoneura fumiferana) LTANQQFLIARLIWYQDGYEQPSDEDLKRITQTWQQADDENEESDTPFRQITEMTILTVQLIVEFAKGLPGFAKISQPDQITLLKACSSEVMMLAVARRYDAASDSVLFPNNQAYTRDNYRKAGMAYVIEDLLHFCRCMYSMALDNIHYALLTAVVIFSDRPGLEQPQLVEEIQRYYLNTLRIYILNQLSGSARSSVIYGKILSILSELRTLGMQNSNMCISLKLKNRKLPPFLEEIWDV | 0.4 | 0.007
L234A: CfEcR-DEF LBD substitution mutant, Leucine (L) to Alanine (A) (protein, listed as Choristoneura fumiferana) LTANQQFLIARLIWYQDGYEQPSDEDLKRITQTWQQADDENEESDTPFRQITEMTILTVQLIVEFAKGLPGFAKISQPDQITLLKACSSEVMMLRVARRYDAASDSVLFANNQAYTRDNYRKAGMAYVIEDLLHFCRCMYSMALDNIHYALLTAVVIFSDRPGLEQPQLVEEIQRYYLNTLRIYILNQLSGSARSSVIYGKILSILSELRTLGMQNSNMCISLKLKNRKLPPFAEEIWDV | 0.001 | 0.006
M93A: CfEcR-DEF LBD substitution mutant, Methionine (M) to Alanine (A) (protein, listed as Choristoneura fumiferana) LTANQQFLIARLIWYQDGYEQPSDEDLKRITQTWQQADDENEESDTPFRQITEMTILTVQLIVEFAKGLPGFAKISQPDQITLLKACSSEVMALRVARRYDAASDSVLFANNQAYTRDNYRKAGMAYVIEDLLHFCRCMYSMALDNIHYALLTAVVIFSDRPGLEQPQLVEEIQRYYLNTLRIYILNQLSGSARSSVIYGKILSILSELRTLGMQNSNMCISLKLKNRKLPPFLEEIWDV | 0.46 | 0.07
I62A: CfEcR-DEF LBD substitution mutant, Isoleucine (I) to Alanine (A) (protein, listed as Choristoneura fumiferana) LTANQQFLIARLIWYQDGYEQPSDEDLKRITQTWQQADDENEESDTPFRQITEMTILTVQLAVEFAKGLPGFAKISQPDQITLLKACSSEVMMLRVARRYDAASDSVLFANNQAYTRDNYRKAGMAYVIEDLLHFCRCMYSMALDNIHYALLTAVVIFSDRPGLEQPQLVEEIQRYYLNTLRIYILNQLSGSARSSVIYGKILSILSELRTLGMQNSNMCISLKLKNRKLPPFLEEIWDV | 0.12 | 0.004
V59A: CfEcR-DEF LBD substitution mutant, Valine (V) to Alanine (A) (protein, listed as Choristoneura fumiferana) LTANQQFLIARLIWYQDGYEQPSDEDLKRITQTWQQADDENEESDTPFRQITEMTILTAQLIVEFAKGLPGFAKISQPDQITLLKACSSEVMMLRVARRYDAASDSVLFANNQAYTRDNYRKAGMAYVIEDLLHFCRCMYSMALDNIHYALLTAVVIFSDRPGLEQPQLVEEIQRYYLNTLRIYILNQLSGSARSSVIYGKILSILSELRTLGMQNSNMCISLKLKNRKLPPFLEEIWDV | 0.47 | 0.002
L223A: CfEcR-DEF LBD substitution mutant, Leucine (L) to Alanine (A) (protein, listed as Choristoneura fumiferana) LTANQQFLIARLIWYQDGYEQPSDEDLKRITQTWQQADDENEESDTPFRQITEMTILTVQLIVEFAKGLPGFAKISQPDQITLLKACSSEVMMLRVARRYDAASDSVLFANNQAYTRDNYRKAGMAYVIEDLLHFCRCMYSMALDNIHYALLTAVVIFSDRPGLEQPQLVEEIQRYYLNTLRIYILNQLSGSARSSVIYGKILSILSELRTLGMQNSNMCISAKLKNRKLPPFLEEIWDV | 0.118 | 0.007
F109A: CfEcR-DEF LBD substitution mutant, Phenylalanine (F) to Alanine (A) (protein, listed as Choristoneura fumiferana) LTANQQFLIARLIWYQDGYEQPSDEDLKRITQTWQQADDENEESDTPFRQITEMTILTVQLIVEFAKGLPGFAKISQPDQITLLKACSSEVMMLRVARRYDAASDSVLAANNQAYTRDNYRKAGMAYVIEDLLHFCRCMYSMALDNIHYALLTAVVIFSDRPGLEQPQLVEEIQRYYLNTLRIYILNQLSGSARSSVIYGKILSILSELRTLGMQNSNMCISLKLKNRKLPPFLEEIWDV | 0.22 | 0.005
Y120A: CfEcR-DEF LBD substitution mutant, Tyrosine (Y) to Alanine (A) (protein, listed as Choristoneura fumiferana) LTANQQFLIARLIWYQDGYEQPSDEDLKRITQTWQQADDENEESDTPFRQITEMTILTVQLIVEFAKGLPGFAKISQPDQITLLKACSSEVMMLRVARRYDAASDSVLFANNQAYTRDNARKAGMAYVIEDLLHFCRCMYSMALDNIHYALLTAVVIFSDRPGLEQPQLVEEIQRYYLNTLRIYILNQLSGSARSSVIYGKILSILSELRTLGMQNSNMCISLKLKNRKLPPFLEEIWDV | 0.001 | 0.006
R95A: CfEcR-DEF LBD substitution mutant, Arginine (R) to Alanine (A) (protein, listed as Choristoneura fumiferana) LTANQQFLIARLIWYQDGYEQPSDEDLKRITQTWQQADDENEESDTPFRQITEMTILTVQLIVEFAKGLPGFAKISQPDQITLLKACSSEVMMLAVARRYDAASDSVLFANNQAYTRDNYRKAGMAYVIEDLLHFCRCMYSMALDNIHYALLTAVVIFSDRPGLEQPQLVEEIQRYYLNTLRIYILNQLSGSARSSVIYGKILSILSELRTLGMQNSNMCISLKLKNRKLPPFLEEIWDV | 0.4 | 0.006
A123F: CfEcR-DEF LBD substitution mutant, Alanine (A) to Phenylalanine (F) (protein, listed as Choristoneura fumiferana) LTANQQFLIARLIWYQDGYEQPSDEDLKRITQTWQQADDENEESDTPFRQITEMTILTVQLIVEFAKGLPGFAKISQPDQITLLKACSSEVMMLRVARRYDAASDSVLFANNQAYTRDNYRKFGMAYVIEDLLHFCRCMYSMALDNIHYALLTAVVIFSDRPGLEQPQLVEEIQRYYLNTLRIYILNQLSGSARSSVIYGKILSILSELRTLGMQNSNMCISLKLKNRKLPPFLEEIWDV | 0.09 | 0.005
W238A: CfEcR-DEF LBD substitution mutant, Tryptophan (W) to Alanine (A) (protein, listed as Choristoneura fumiferana) LTANQQFLIARLIWYQDGYEQPSDEDLKRITQTWQQADDENEESDTPFRQITEMTILTVQLIVEFAKGLPGFAKISQPDQITLLKACSSEVMMLRVARRYDAASDSVLFANNQAYTRDNYRKAGMAYVIEDLLHFCRCMYSMALDNIHYALLTAVVIFSDRPGLEQPQLVEEIQRYYLNTLRIYILNQLSGSARSSVIYGKILSILSELRTLGMQNSNMCISLKLKNRKLPPFLEEIADV | 0.002 | 0.013
M125A: CfEcR-DEF LBD substitution mutant, Methionine (M) to Alanine (A) (protein, listed as Choristoneura fumiferana) LTANQQFLIARLIWYQDGYEQPSDEDLKRITQTWQQADDENEESDTPFRQITEMTILTVQLIVEFAKGLPGFAKISQPDQITLLKACSSEVMMLRVARRYDAASDSVLFANNQAYTRDNYRKAGAAYVIEDLLHFCRCMYSMALDNIHYALLTAVVIFSDRPGLEQPQLVEEIQRYYLNTLRIYILNQLSGSARSSVIYGKILSILSELRTLGMQNSNMCISLKLKNRKLPPFLEEIWDV | 0.005 | 0.007
L230A: CfEcR-DEF LBD substitution mutant, Leucine (L) to Alanine (A) (protein, listed as Choristoneura fumiferana) LTANQQFLIARLIWYQDGYEQPSDEDLKRITQTWQQADDENEESDTPFRQITEMTILTVQLIVEFAKGLPGFAKISQPDQITLLKACSSEVMMLRVARRYDAASDSVLFANNQAYTRDNYRKAGMAYVIEDLLHFCRCMYSMALDNIHYALLTAVVIFSDRPGLEQPQLVEEIQRYYLNTLRIYILNQLSGSARSSVIYGKILSILSELRTLGMQNSNMCISLKLKNRKAPPFLEEIWDV | 0.001 | 0.006
